Measured values as given in the supplement of paper PMC10724198.
± gives the standard deviation of the averaged measurements.

Legend:
[1] = test system: Saccharomyces cerevisiae; test: protein stability index of tFT-peptide fusion (C-terminal peptide) (PSI (0-1 scale)); higher = more stable (slower turnover)
Procedure: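 MPS profiling in S. cerevisiae of the tFT-X12 degron library: putative degron peptides plus stable controls, 12 aa, fused to the C-terminus of a sfGFP-mCherry timer. Cells are FACS-sorted into 8 mCherry/sfGFP bins and deep-sequenced. PSI runs from 0 (unstable) to 1 (stable). Backgrounds are wild type, das1Δ and doa10Δ at 30 °C, and wild type, das1Δ, cdc34-1 and cdc53-1 at 37 °C; 2-3 technical replicates each.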

[2] = test system: Saccharomyces cerevisiae; test: as above; conditions: genetic background: wild type; temperature: 30 C
[3] = genetic background: cdc34-1, temperature: 37 C
[4] = genetic background: cdc53-1, temperature: 37 C
[5] = genetic background: das1 deletion, temperature: 30 C
[6] = genetic background: das1 deletion, temperature: 37 C
[7] = genetic background: doa10 deletion, temperature: 30 C
[8] = genetic background: wild type, temperature: 30 C
[9] = genetic background: wild type, temperature: 37 C
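Note: PSI is a weighted mean of sequencing reads over stability bins, variants kept only with over 10 reads, mCherry proximal and sfGFP distal, peptide attached via GGGS linker.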

Sequence	protein stability index [1, 3]	protein stability index [1, 4]	protein stability index [1, 5]	protein stability index [1, 6]	protein stability index [1, 7]	protein stability index [1, 8]	protein stability index [1, 9]	protein stability index [2]
VFLLLSLSVFFE	0.0371 ± 0.0054	0.0844 ± 0.0086	0.138 ± 0.0083	0.225 ± 0.0081	0.109 ± 0.014	0.128 ± 0.043	0.142 ± 0.018	0.1721 ± 0.0014
VFSFGLLFQVCR	0.598 ± 0.04	0.625 ± 0.025	0.435 ± 0.022	0.6144 ± 0.0034	0.4081 ± 0.0038	0.452 ± 0.025	0.631 ± 0.053	0.502 ± 0.019
VFSGVTTILVRT	0.578 ± 0.05	0.517 ± 0.026	0.37 ± 0.035	0.576 ± 0.022	0.346 ± 0.0089	0.392 ± 0.018	0.538 ± 0.0096	0.539 ± 0.11
VFSLFLVLNYPF	0.302 ± 0.046	0.296 ± 0.043	0.373 ± 0.021	0.495 ± 0.01	0.466 ± 0.021	0.362 ± 0.012	0.432 ± 0.025	0.446 ± 0.037
VGGLGWCWVCMA	0.573 ± 0.041	0.718 ± 0.035	0.595 ± 0.017	0.75 ± 0.013	0.132 ± 0.01	0.158 ± 0.023	0.246 ± 0.0056	0.25 ± 0.016
VGIFKVCALVLR	0.325 ± 0.019	0.296 ± 0.011	0.324 ± 0.027	0.4622 ± 0.003	0.399 ± 0.0062	0.335 ± 0.016	0.446 ± 0.011	0.483 ± 0.0098
VGVSCVVCVCGV	0.493 ± 0.0071	0.471 ± 0.02	0.289 ± 0.034	0.514 ± 0.0077	0.2604 ± 0.0024	0.295 ± 0.017	0.4873 ± 0.0037	0.3704 ± 0.0011
VGVVVAIGLVRM	0.508 ± 0.013	0.575 ± 0.032	0.381 ± 0.041	0.546 ± 0.0048	0.3423 ± 0.00054	0.377 ± 0.03	0.512 ± 0.019	0.4849 ± 0.0037
VICSLFRYIMRL	0.414 ± 0.021	0.518 ± 0.0071	0.571 ± 0.013	0.6336 ± 0.0037	0.18 ± 0.019	0.132 ± 0.0062	0.134 ± 0.043	0.199 ± 0.0043
VIFFEFFLSFGE	0.267 ± 0.0089	0.481 ± 0.024	0.281 ± 0.026	0.452 ± 0.026	0.253 ± 0.033	0.32 ± 0.025	0.433 ± 0.0069	0.413 ± 0.0071
VIRIRLSCSVDV	0.326 ± 0.04	0.42 ± 0.047	0.323 ± 0.022	0.411 ± 0.0063	0.313 ± 0.023	0.322 ± 0.021	0.387 ± 0.013	0.367 ± 0.026
VISVFAISTRVD	0.489 ± 0.076	0.4901 ± 0.00049	0.409 ± 0.057	0.5675 ± 0.0051	0.398 ± 0.01	0.414 ± 0.018	0.513 ± 0.066	0.475 ± 0.0055
VIVQSWEIIRLN	0.553 ± 0.055	0.71 ± 0.0093	0.604 ± 0.022	0.7176 ± 0.0053	0.0878 ± 0.0043	0.105 ± 0.026	0.122 ± 0.0068	0.21 ± 0.018
VKVKMKIIIIIK	0.243 ± 0.16	0.258 ± 0.16	0.28 ± 0.044	0.416 ± 0.032	0.3087 ± 0.0006	0.281 ± 0.087	0.432 ± 0.012	0.341 ± 0.0073
VLGFRPLVFLCF	0.235 ± 0.058	0.252 ± 0.029	0.324 ± 0.029	0.4637 ± 0.0028	0.392 ± 0.011	0.304 ± 0.013	0.392 ± 0.0027	0.3239 ± 0.0027
VLRACCDWGFLV	0.53 ± 0.0055	0.696 ± 0.039	0.655 ± 0.017	0.77382 ± 0.00011	0.108 ± 0.0016	0.108 ± 0.03	0.163 ± 0.024	0.161 ± 0.02
VLRLLARRHAMV	0.577 ± 0.036	0.6735 ± 0.002	0.614 ± 0.015	0.689 ± 0.013	0.148 ± 0.013	0.145 ± 0.028	0.251 ± 0.02	0.308 ± 0.017
VMLFYVGSGVVS	0.654 ± 0.053	0.688 ± 0.038	0.54 ± 0.032	0.685 ± 0.016	0.545 ± 0.023	0.556 ± 0.02	0.671 ± 0.014	0.485 ± 0.11
VPGCLGRFLFFL	0.594 ± 0.025	0.6987 ± 0.0066	0.573 ± 0.024	0.722 ± 0.029	0.201 ± 0.032	0.218 ± 0.029	0.413 ± 0.029	0.29 ± 0.024
VRFGYGRIVWDI	0.706 ± 0.035	0.789 ± 0.048	0.6514 ± 0.0055	0.808 ± 0.018	0.472 ± 0.015	0.496 ± 0.032	0.68 ± 0.016	0.5 ± 0.1

Sequence	protein stability index [1, 3]	protein stability index [1, 4]	protein stability index [1, 5]	protein stability index [1, 6]	protein stability index [1, 7]	protein stability index [1, 8]	protein stability index [1, 9]	protein stability index [2]
VRGLGFRWVWGW	0.747 ± 0.034	0.762 ± 0.011	0.664 ± 0.0089	0.7668 ± 0.0056	0.666 ± 0.011	0.668 ± 0.013	0.772 ± 0.018	0.711 ± 0.038
VRHPVVVVRRVI	0.663 ± 0.017	0.746 ± 0.0067	0.649 ± 0.035	0.70566 ± 0.00012	0.3516 ± 0.0032	0.411 ± 0.025	0.576 ± 0.0099	0.508 ± 0.055
VRRFNVLLYVRG	0.459 ± 0.029	0.4921 ± 0.0032	0.311 ± 0.027	0.528 ± 0.0053	0.324 ± 0.0045	0.321 ± 0.019	0.523 ± 0.012	0.425 ± 0.0063
VRTFAVSCLCVC	0.0897 ± 0.018	0.139 ± 0.034	0.19 ± 0.019	0.23 ± 0.0066	0.126 ± 0.0024	0.133 ± 0.013	0.128 ± 0.0014	0.301 ± 0.0037
VSFFCLICRVYP	0.371 ± 0.0078	0.4463 ± 0.0044	0.317 ± 0.033	0.4808 ± 0.0037	0.298 ± 0.008	0.313 ± 0.012	0.417 ± 0.039	0.434 ± 0.099
VSIRVVVWVSWG	0.133 ± 0.0081	0.2248 ± 0.00098	0.145 ± 0.022	0.259 ± 0.011	0.121 ± 0.0089	0.143 ± 0.02	0.223 ± 0.013	0.226 ± 0.032
VSLHVFVFLLAS	0.255 ± 0.02	0.347 ± 0.0036	0.249 ± 0.025	0.4219 ± 0.0024	0.189 ± 0.012	0.239 ± 0.027	0.378 ± 0.0044	0.309 ± 0.043
VSLIYKTIKNRV	0.6704 ± 0.0033	0.732 ± 0.0082	0.595 ± 0.03	0.726 ± 0.063	0.396 ± 0.049	0.397 ± 0.015	0.6009 ± 0.001	0.517 ± 0.057
VSLSEVAIIVHG	0.544 ± 0.025	0.611 ± 0.0098	0.418 ± 0.035	0.596 ± 0.014	0.391 ± 0.022	0.426 ± 0.022	0.5739 ± 0.0012	0.517 ± 0.026
VSWWRGVYVVLF	0.503 ± 0.019	0.5319 ± 0.00099	0.388 ± 0.031	0.566 ± 0.0089	0.342 ± 0.013	0.357 ± 0.018	0.526 ± 0.023	0.518 ± 0.039
VTEGMKEVIKQI	0.647 ± 0.014	0.702 ± 0.026	0.629 ± 0.044	0.728 ± 0.013	0.3751 ± 0.00062	0.402 ± 0.038	0.6073 ± 0.0042	0.482 ± 0.0079
VVDIFLFFLFVC	0.171 ± 0.0036	0.192 ± 0.027	0.243 ± 0.013	0.351 ± 0.021	0.186 ± 0.0069	0.145 ± 0.0086	0.216 ± 0.048	0.203 ± 0.015
VVFVFIDLGLCV	0.187 ± 0.0053	0.326 ± 0.035	0.243 ± 0.028	0.423 ± 0.0072	0.188 ± 0.019	0.223 ± 0.018	0.4359 ± 0.0027	0.266 ± 0.007
VVFVRLGWMRAC	0.441 ± 0.034	0.52 ± 0.017	0.43 ± 0.03	0.59 ± 0.018	0.0904 ± 0.01	0.0972 ± 0.021	0.112 ± 0.0058	0.172 ± 0.046
VVGILVLASWDL	0.184 ± 0.011	0.321 ± 0.058	0.264 ± 0.041	0.426 ± 0.019	0.196 ± 0.0056	0.225 ± 0.029	0.373 ± 0.017	0.376 ± 0.045
VVLWTFLLEVSA	0.0259 ± 0.011	0.0344 ± 0.0033	0.0674 ± 0.015	0.0951 ± 0.0053	0.0508 ± 0.019	0.0755 ± 0.033	0.101 ± 0.014	0.134 ± 0.034
VVLWVVCWGCWK	0.237 ± 0.05	0.339 ± 0.021	0.215 ± 0.038	0.432 ± 0.024	0.179 ± 0.015	0.205 ± 0.029	0.421 ± 0.021	0.328 ± 0.027
VVSLAVVGRFLV	0.616 ± 0.061	0.7 ± 0.011	0.586 ± 0.024	0.7 ± 0.031	0.118 ± 0.018	0.147 ± 0.018	0.263 ± 0.03	0.2243 ± 0.0017
VVVFRWTCWLLV	0.0544 ± 0.005	0.144 ± 0.023	0.0835 ± 0.013	0.245 ± 0.0041	0.0257 ± 0.014	0.0385 ± 0.011	0.06333 ± 0.00029	0.0581 ± 0.028
